B1: ZNF511 (parent)
chain: HLYPADFRFDKPKKSRSPASAEAP
B2: DLC1 (parent)
chain: RDAIEALCRRLNTLNKCAVMKLEI

Variants of: B1
Experiment: protein stability index of a GFP-peptide fusion (GPS, HEK-293T) (PSI 1-6); higher = more stable
Settings: c terminus: a fixed tail appended
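Also: lentivirally expressed fusions sorted by FACS into six bins by GFP to DsRed ratio, PSI derived from sequencing read proportions per bin multiplied by bin number.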

Protein stability index of substitutions, site by site:
K14: Y 2.62; I 2.67; F 2.26; P 2.63; Q 2.39; C 2.77; E 3.23; M 3.17; H 2.37; G 3.22; V 2.33; W 2.56; R 2.01; L 3.24; A 3.3; S 3.08; T 2.8; D 3.29; N 3.04
E22: T 2.64; L 2.58; P 2.91; W 2.44; S 2.83; C 2.67; Q 2.61; M 2.19; D 2.99; A 2.7; N 2.9; G 3.13; V 2.7; H 2.63; I 2.93; R 2.43; K 2.69; F 2.52; Y 2.34
A21: W 2.28; M 3; R 2.84; N 2.96; F 3.18; Y 2.95; S 3.4; L 2.38; E 3.08; C 3.1; G 3; Q 3.67; T 2.75; I 2.82; P 3.11; V 2.71; K 2.81; H 3.12; D 2.72
P12: T 3.7; W 3.02; N 2.65; Y 2.94; Q 3.18; L 3.25; R 2.47; M 2.72; V 2.8; K 2.96; H 2.89; S 2.64; G 3.02; I 3.72
P24: V 2.98; W 2.14; T 2.71; M 2.53; S 3.62; K 2.97; F 2.94; Q 2.6; H 2.87; N 3.09; R 2.39; C 2.88; G 2.42; I 2.61; E 2.6; Y 2.69; L 2.92; A 3.32; D 3.44
K13: A 3.07; G 2.92; I 3; C 2.8; N 2.7; D 3.04; H 2.78; P 3.64; T 3.18; L 2.94; F 2.7; E 3.34; R 3.2; Y 3.56; V 2.22; W 2.58; S 2.91; M 2.84; Q 3.4
S20: F 2.22; V 2.82; I 2.64; D 2.97; E 2.78; M 2.68; H 2.69; K 2.71; G 2.85; L 2.51; T 3.07; N 3.36; P 2.72; Q 2.42; A 3.32; C 2.92; W 1.8; R 2.97; Y 2.61
S17: V 2.28; K 3.01; M 2.77; Q 3; H 2.86; A 2.61; P 2.83; Y 2.29; I 2.03; C 2.9; D 3.28; N 3.16; L 2.9; E 3.18; W 2.27; G 2.63; R 3.29; T 2.97; F 2.7
R16: H 3.13; G 3.29; P 3.2; C 2.54; Q 3.28; E 3.34; M 3.28; K 3.36; T 3.44; S 2.76; A 3.51; W 3.05; F 2.73; D 3.18; Y 2.13; V 2.51; L 2.97; I 2.6; N 3.17
P18: E 2.74; K 3.08; Y 2.34; A 2.22; V 2.33; G 2.58; S 2.97; Q 2.56; M 2.78; C 2.97; R 2.79; T 3.52; I 2.96; W 2.51; F 2.3; H 2.74; D 3.09; N 2.34; L 2.73
A19: V 2.87; F 2.05; T 3.29; K 3.54; D 3.36; Q 2.56; I 2.74; G 3.02; W 2; Y 2.69; S 3.44; M 2.7; C 2.63; P 3.18; N 2.56; H 2.68; E 2.97; L 2.88; R 2.81
S15: P 3.19; R 1.78; V 2.36; N 2.67; F 3.04; W 1.93; H 2.93; A 3.39; C 2.56; M 2.88; G 2.86; T 2.4; Y 2.51; D 3.35; L 2.92; K 3.24; Q 3.19; I 3.23; E 3.18
A23: Q 3.06; W 2.82; M 2.53; Y 2.63; C 2.73; I 2.69; K 3.19; V 2.73; L 2.88; S 2.86; P 3.37; D 3.24; H 3.13; R 2.8; T 2.72; N 3.1; E 2.88; G 3.28; F 2.76

Variants of: B2
Experiment: as above
Settings: c terminus: a fixed tail appended

Protein stability index, by site and new letter:
A6: G 3.12; D 1.41; N 2.69; R 2.92; C 3.07; H 3.17; K 2.82; F 3.71; M 2.97; S 3.05; L 3.11; E 1.64; P 3.8; T 2.35; Y 1.73
L7: N 2.5; K 2.16; A 2.37; C 1.97; P 2.31; E 1.02; T 2.46; M 3.54; Q 2.41; R 2.13; H 1.31; G 2.13; V 2.36; S 1.78; D 2.13; F 2.12
R1: V 3.38; Y 2.99; M 3.94; N 1.64; S 3.94; P 2.85; H 3.12; K 2.23; I 2.9; Q 3.23; D 2.4; G 2.35; L 2.02; E 2.47; C 2.52
A3: I 2.5; M 3.33; G 2.33; N 3.61; V 3.3; E 1.48; Y 2.37; Q 2.95; K 2.7; C 3.99
D2: M 3.99; I 2.03; P 3.08; E 3.12; S 3.79; H 1.94; Q 2.74; A 2.4; G 3.23; W 4.44
E5: W 2.13; L 3.21; I 2.84; Y 2.23; C 2.39; A 2.3; S 1.83; M 3.42; V 1.97; R 2.97; P 3.06; H 2.47
I4: M 2.53; T 2.24; Q 2.12; A 1.76; D 2.67; N 2.4; C 2.22; K 2.37; R 2.41; L 2.59; F 3.05; H 2.44; V 3.39; E 1.44

Source: the supplement of paper PMC10567573
